Columns and labels:
[1] = target: T1, human FAP protein expressed on 293T cells (Homo sapiens, UniProt Q12884); assay: Cell binding assay by flow cytometry, 293T-human FAP cells
T1 construct: expressed in transfected cells; host or cells: 293T cells, PIRES-puro3 vector, puromycin selection
T1 sequence (Q12884 1-760): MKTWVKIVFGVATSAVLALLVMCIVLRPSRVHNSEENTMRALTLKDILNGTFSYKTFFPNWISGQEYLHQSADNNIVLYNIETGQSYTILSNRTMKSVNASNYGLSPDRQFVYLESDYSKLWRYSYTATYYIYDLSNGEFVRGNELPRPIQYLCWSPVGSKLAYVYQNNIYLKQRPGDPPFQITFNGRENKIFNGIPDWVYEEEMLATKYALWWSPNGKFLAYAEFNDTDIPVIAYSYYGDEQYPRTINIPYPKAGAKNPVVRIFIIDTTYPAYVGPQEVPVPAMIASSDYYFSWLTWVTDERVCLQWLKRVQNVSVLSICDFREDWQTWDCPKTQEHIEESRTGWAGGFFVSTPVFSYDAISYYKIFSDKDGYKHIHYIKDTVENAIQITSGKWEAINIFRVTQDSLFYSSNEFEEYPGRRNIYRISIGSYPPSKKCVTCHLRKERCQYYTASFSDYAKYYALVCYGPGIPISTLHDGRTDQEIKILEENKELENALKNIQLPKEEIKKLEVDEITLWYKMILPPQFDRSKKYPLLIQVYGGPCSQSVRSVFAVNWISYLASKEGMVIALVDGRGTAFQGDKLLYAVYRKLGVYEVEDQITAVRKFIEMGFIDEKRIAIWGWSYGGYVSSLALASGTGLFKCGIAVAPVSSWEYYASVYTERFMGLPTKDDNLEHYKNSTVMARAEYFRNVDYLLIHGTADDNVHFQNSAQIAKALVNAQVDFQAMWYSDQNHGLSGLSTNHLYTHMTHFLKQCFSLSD
Experimental: (§1) Whether the humanized antibody of the present disclosure can bind to human FAP protein stably expressed on the surface of 293T cells was determined by a cell binding assay. Firstly, the sequences encoding human FAP protein (NM_004460.2, SEQ ID NO: 31) and cynomolgus FAP (XM_005573320.2, SEQ ID NO: 32) were cloned into expression vector PIRES-puro3 (Clontech, Cat #631619) […]. The vectors were used to transfect 293T cells. […]
(§2) The human FAP antibodies (huF19-LG and sibrotuzumab) were 4-fold serially diluted from a starting concentration of 200 nM to a total of 8 concentrations and added to the cells for co-incubation at 4° C. for 30 min. […] The cells were washed twice with PBS and then resuspended, and finally, fluorescence signals were detected using the […] (BD Bioscience) flow cytometer.
Whether the mutant antibody in the present disclosure can bind to human or cynomolgus FAP protein stably expressed on the surface of 293T cells was determined by a cell binding assay. […] The cells were washed twice with PBS and then resuspended, and finally, fluorescence signals were detected using the […] (BD Bioscience) flow cytometer. […]

[2] = Stability at 40° C., purity by SEC; assay type: physicochemical; settings: for Purity by SEC, %: mutant antibody storage stability
Experimental: The purified antibodies were concentrated, and sterile filtration was performed. The purity of the antibodies was determined by size exclusion chromatography (SEC). Specifically, the samples were loaded at 20 μg onto a TSK G3000SWXL column using 100 mM sodium phosphate+100 mM Na2SO4 (pH 7.0) as a running buffer for 30 min. The collected effluent was measured using the Agilent 1220 HPLC system and the data were analyzed using OpenLAB software.
The huF19-LG antibody was tested for stability at 40° C. ELISA (see Example 1.2) and SEC (see Example 1.1) were conducted at 0 weeks (OW), 2 weeks (2W), or 4 weeks (4W) with the results shown as follows:
The activity and purity of the molecule were determined by SEC after storage. See Example 1.5 for the specific procedures.

[3] = tested on: cynomolgus FAP protein expressed on 293T cells; assay: Cell binding assay by flow cytometry, 293T-cynomolgus FAP cells
cynomolgus FAP protein expressed on 293T cells, sequence (as listed by the source): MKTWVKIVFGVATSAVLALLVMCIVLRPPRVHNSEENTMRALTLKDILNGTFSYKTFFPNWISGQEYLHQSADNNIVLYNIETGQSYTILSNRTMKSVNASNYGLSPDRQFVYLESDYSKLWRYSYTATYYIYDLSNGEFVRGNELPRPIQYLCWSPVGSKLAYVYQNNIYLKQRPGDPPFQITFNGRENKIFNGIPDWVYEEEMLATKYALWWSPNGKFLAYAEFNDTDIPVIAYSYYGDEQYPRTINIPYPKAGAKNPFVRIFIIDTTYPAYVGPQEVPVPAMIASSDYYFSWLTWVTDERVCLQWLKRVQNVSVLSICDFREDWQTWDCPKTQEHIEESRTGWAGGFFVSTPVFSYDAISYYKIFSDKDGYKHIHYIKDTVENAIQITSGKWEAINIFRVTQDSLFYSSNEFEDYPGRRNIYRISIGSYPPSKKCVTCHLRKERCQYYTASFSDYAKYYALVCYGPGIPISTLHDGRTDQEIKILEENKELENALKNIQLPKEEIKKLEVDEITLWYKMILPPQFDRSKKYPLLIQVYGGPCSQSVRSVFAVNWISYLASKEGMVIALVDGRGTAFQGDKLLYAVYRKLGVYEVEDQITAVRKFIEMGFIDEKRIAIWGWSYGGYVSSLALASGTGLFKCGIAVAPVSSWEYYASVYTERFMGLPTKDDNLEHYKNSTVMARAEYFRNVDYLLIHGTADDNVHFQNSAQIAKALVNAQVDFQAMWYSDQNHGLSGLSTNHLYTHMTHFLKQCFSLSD
Experimental: as §1, §2
Whether the mutant antibody in the present disclosure can bind to human or cynomolgus FAP protein stably expressed on the surface of 293T cells was determined by a cell binding assay. […] The cells were washed twice with PBS and then resuspended, and finally, fluorescence signals were detected using the […] (BD Bioscience) flow cytometer.

murine FAP = target: T2, murine FAP (Mus musculus, UniProt P97321); assay: Binding to murine FAP
T2 sequence (P97321 1-761): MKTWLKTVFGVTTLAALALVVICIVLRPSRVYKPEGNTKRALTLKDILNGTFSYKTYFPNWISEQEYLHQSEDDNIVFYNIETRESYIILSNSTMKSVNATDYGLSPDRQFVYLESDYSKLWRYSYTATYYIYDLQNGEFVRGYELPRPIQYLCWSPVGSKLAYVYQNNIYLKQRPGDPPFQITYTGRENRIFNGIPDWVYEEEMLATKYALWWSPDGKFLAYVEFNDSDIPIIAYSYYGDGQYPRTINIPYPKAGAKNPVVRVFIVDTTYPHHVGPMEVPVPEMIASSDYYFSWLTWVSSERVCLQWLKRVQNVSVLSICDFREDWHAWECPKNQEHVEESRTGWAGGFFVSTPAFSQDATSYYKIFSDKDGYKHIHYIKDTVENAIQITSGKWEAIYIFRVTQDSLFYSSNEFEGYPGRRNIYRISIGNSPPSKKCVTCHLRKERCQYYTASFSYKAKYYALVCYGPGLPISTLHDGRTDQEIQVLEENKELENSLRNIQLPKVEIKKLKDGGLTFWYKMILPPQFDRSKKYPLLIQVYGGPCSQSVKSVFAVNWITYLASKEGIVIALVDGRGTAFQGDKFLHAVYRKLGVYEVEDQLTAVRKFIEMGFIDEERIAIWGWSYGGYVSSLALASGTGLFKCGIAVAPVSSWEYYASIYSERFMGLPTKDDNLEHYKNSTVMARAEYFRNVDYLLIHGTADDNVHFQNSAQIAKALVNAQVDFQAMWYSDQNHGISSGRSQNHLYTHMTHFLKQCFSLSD

B1: huF19-LG-NGR: mutant of huF19-LG with G56R (Kabat) in heavy chain CDR2; VH SEQ ID NO: 21, VL SEQ ID NO: 15 (antibody, V domains shown)
VH: QVQLVQSGAEVKKPGASVKVSCKASGYTFTEYTIHWVRQATGQGLEWIGGINPNNRIPNYNQKFKGRATMTVGTSISTAYMELSSLRSEDTAVYFCARRRIAYGYDEGHAMDYWGQGTLVTVSS
VL: DIQMTQSPSSLSASVGDRVTITCKSSQSLLYSRNQKNYLAWFQQKPGKAPKLLIFWASTRESGVPSRFTGSGFGTDFTLTISSLQPEDFATYYCQQYFSYPLTFGQGTKLEIK
Q: What does the source list for B1?
A: binding to human FAP protein expressed on engineered 293T cells (FACS) [1]: can bind to human FAP protein and cynomolgus FAP protein expressed on engineered 293T cells, with the binding capacities comparable to those of the antibody before mutation; change in purity by SEC during storage ([2]; 0 to 4 weeks): did not exhibit significant changes in purity; Purity by SEC, % ([2]; 0 weeks): 99.2%; Purity by SEC, % ([2]; 2 weeks): 99.1%; Purity by SEC, % ([2]; 4 weeks): 99.1%; binding to cynomolgus FAP protein expressed on engineered 293T cells (FACS) [3]: can bind to human FAP protein and cynomolgus FAP protein expressed on engineered 293T cells, with the binding capacities comparable to those of the antibody before mutation; binding to murine protein (murine FAP): cannot bind to murine protein
